# Source: patent US20200071378A1 (SHATTUCK LABS, published 2020)
# T1: human OX40 expressed on cells (Jurkat/hOX40) (human, UniProt P43489 29-277)
# T1 construct: whole, on cells; also called Jurkat cells engineered to overexpress human OX40; OX40 present on the cell surface
# T1 sequence (looked up): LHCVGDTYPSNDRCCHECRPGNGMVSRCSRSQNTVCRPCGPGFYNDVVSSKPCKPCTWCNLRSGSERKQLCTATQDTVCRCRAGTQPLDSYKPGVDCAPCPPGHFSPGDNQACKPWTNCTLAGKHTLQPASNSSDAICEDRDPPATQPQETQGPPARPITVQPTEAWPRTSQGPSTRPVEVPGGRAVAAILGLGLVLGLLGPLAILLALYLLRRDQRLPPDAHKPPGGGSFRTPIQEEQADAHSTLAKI
# T2: hOX40-His (human, UniProt P43489 29-216, limits assumed)
# T2 construct: also called human OX40
# T2 sequence (looked up): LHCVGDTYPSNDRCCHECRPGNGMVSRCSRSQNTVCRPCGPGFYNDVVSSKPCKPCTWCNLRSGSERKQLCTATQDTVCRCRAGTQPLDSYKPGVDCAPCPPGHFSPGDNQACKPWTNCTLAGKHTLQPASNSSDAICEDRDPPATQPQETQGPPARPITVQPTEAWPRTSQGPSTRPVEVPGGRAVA
# T3: recombinant murine OX40-His (murine, UniProt P47741 20-211, limits assumed)
# T3 construct: Coated on penta-his biosensors; also called mOX40
# T3 sequence (looked up): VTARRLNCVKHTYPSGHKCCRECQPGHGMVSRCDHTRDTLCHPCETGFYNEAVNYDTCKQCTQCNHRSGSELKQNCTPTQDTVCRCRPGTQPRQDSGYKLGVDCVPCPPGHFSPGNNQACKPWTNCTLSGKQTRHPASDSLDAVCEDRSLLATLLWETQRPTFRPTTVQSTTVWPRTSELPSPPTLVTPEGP
# B1: human VSIG8-Fc-OX40L chimeric protein (Fc fusion)
# chain: VRINGDGQEVLYLAEGDNVRLGCPYVLDPEDYGPNGLDIEWMQVNSDPAHHRENVFLSYQDKRINHGSLPHLQQRVRFAASDPSQYDASINLMNLQVSDTATYECRVKKTTMATRKVIVTVQARPAVPMCWTEGHMTYGNDVVLKCYASGGSQPLSYKWAKISGHHYPYRAGSYTSQHSYHSELSYQESFHSSINQGLNNGDLVLKDISRADDGLYQCTVANNVGYSVCVVEVKVSDSRRIGCPPCPAPEFLGGPSVFLFPPKPKDQLMISRTPEVTCVVVDVSQEDPEVQFNWYVDGVEVHNAKTKPREEQFNSTYRVVSVLTVLHQDWLSGKEYKCKVSSKGLPSSIEKTISNATGQPREPQVYTLPPSQEEMTKNQVSLTCLVKGFYPSDIAVEWESNGQPENNYKTTPPVLDSDGSFFLYSRLTVDKSRWQEGNVFSCSVLHEALHNHYTQKSLSLSLGKIEGRMDQVSHRYPRIQSIKVQFTEYKKEKGFILTSQKEDEIMKVQNNSVIINCDGFYLISLKGYFSQEVNISLHYQKDEEPLFQLKKVRSVNSLMVASLTYKDKVYLNVTTDNTSLDDFHVNGGELILIHQNPGEFCVL
# notes: also called hVSIG8-Fc-OX40L
# B2: commercially-available mFc-OX40L (Fc fusion, murine, UniProt P43488 51-198, looked up)
# chain: SSSPAKDPPIQRLRGAVTRCEDGQLFISSYKNEYQTMEVQNNSVVIKCDGLYIIYLKGSFFQEVKIDLHFREDHNPISIPMLNDGRRIVFTVVASLAFKDKVYLTVNAPDTLCEHLQINDGELIVVQLTPGYCAPEGSYHSTVNQVPL
# notes: Bought control; Construct is not described; also called commercially-available recombinant control protein; not shown: Fc part of a bought control protein, not described
# B3: commercially-available single-sided human Fc-OX40L (Fc fusion, UniProt P23510 51-183, looked up)
# chain: QVSHRYPRIQSIKVQFTEYKKEKGFILTSQKEDEIMKVQNNSVIINCDGFYLISLKGYFSQEVNISLHYQKDEEPLFQLKKVRSVNSLMVASLTYKDKVYLNVTTDNTSLDDFHVNGGELILIHQNPGEFCVL
# notes: Bought control; also called hFc-OX40L; recombinant control protein; not shown: Fc part of a bought control protein, not described
# Tests used:
# [1] = molecular target: T1, human OX40 expressed on cells …; assay: flow cytometry on Jurkat/hOX40 cells
# Method: For cell binding assays, immortalized cell lines were engineered to stably express human OX40 (Jurkat/hOX40). Increasing concentrations of the VSIG8-Fc-OX40L chimeric protein were incubated with the over-expressing (Jurkat/hOX40) cell line for two hours. Cells were collected, washed, and stained with antibodies for the detection of chimeric protein binding by flow cytometry.
# [2] = molecular target: T2, hOX40-His; assay: SPR/Octet kinetics on hOX40-His, against the control Fc-OX40L
# [3] = molecular target: T2, hOX40-His; assay: SPR (BioRad ProteOn XPR 360) per Example 5; FIG. 5 legend says biolayer interferometry (Octet); hOX40-His as ligand, analyte at 117.6 nM
# [4] = molecular target: T4, human IgG (plate-bound); assay: ELISA, left panel; sheet header 'IgG ELISA, H&L Capture, Fc-HRP Detect'; paragraph 219: capture on plate-bound human IgG, detection with HRP-conjugated anti-human IgG antibody
# T4 construct: Capture reagent as printed; It may in fact be an anti-human IgG antibody; also called hIgG
# Description: Specifically, the Fc portion of the chimeric protein was detected by capturing to a plate-bound human IgG and detecting via an HRP-conjugated anti-human IgG antibody (left panel of FIG. 3). The OX40 domain of the chimeric protein was detected by capturing to a plate-bound recombinant human OX40 protein and detecting via an anti-OX40-specific antibody (right panel of FIG. 3). It was observed that in ELISA assays, using the central Fc region to detect chimeric proteins tended to underestimate the actual protein content in a sample. Therefore, low level of the hVSIG8-Fc-OX40L chimeric protein was detected compared to standard in this assay.
# [5] = molecular target: T3, recombinant murine OX40-His; assay: biolayer interferometry, 'Octet Binding Affinities, Ligand: mouse OX40-His'; penta-His biosensors; Example 11 calls it SPR
# [6] = molecular target: T2, hOX40-His; assay: SPR (BioRad ProteOn XPR 360) per Example 5; FIG. 5 legend says biolayer interferometry (Octet); hOX40-His as ligand, analyte at 222.2 nM
binder,measurement,setting,value
B1,EC50,[1],~30 nM
same,fold slower off-rate than the Fc-OX40L protein,[2],10 fold
same,Kd,[3],0.767 nM
same,koff,[3],0.000254 s⁻¹
same,kon,[3],331000 M⁻¹ s⁻¹
same,EC50 (read off the curve),[4],~6 nM
B2,binding result,[5],binds
B3,Kd,[6],61 nM
same,koff,[6],0.00254 s⁻¹
same,kon,[6],41700 M⁻¹ s⁻¹
